In the assay the target is purified RSV F glycoprotein (respiratory syncytial virus). The experiment in a line: ELISA on purified F glycoprotein, control Fab. To be noted: scale: reciprocal dilution. On the technique in general: An ELISA detects its analyte on a solid surface through an enzyme-linked reagent.
purified RSV F glycoprotein (respiratory syncytial virus), sequence (P12568 26-109, chain 1 of 2): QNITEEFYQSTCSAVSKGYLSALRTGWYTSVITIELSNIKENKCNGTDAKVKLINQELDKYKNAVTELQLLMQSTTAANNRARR
purified RSV F glycoprotein (respiratory syncytial virus), sequence (P12568 137-574, chain 2 of 2): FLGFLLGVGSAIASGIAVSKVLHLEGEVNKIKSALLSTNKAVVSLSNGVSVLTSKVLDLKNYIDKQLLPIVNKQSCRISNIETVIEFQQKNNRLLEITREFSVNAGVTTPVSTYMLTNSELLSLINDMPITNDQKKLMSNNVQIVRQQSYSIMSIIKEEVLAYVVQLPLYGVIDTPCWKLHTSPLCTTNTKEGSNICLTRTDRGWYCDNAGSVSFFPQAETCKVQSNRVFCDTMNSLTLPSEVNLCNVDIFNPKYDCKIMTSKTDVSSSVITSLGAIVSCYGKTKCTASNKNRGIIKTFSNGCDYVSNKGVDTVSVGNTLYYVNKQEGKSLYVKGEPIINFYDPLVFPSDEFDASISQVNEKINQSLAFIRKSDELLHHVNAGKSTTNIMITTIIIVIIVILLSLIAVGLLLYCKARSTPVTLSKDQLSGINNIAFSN

The substance hepatitis B Fab returned an ELISA titer of 2.

The values are drawn from patent publication US20040005324A1.
